For two substances, koff results are on record in PMC6717114.

For test [1], the target named is Mouse Cdh23 EC1-2(D101G) (mouse). The test can be described thus: single-molecule force spectroscopy.
For test [2], the target named is Mouse Cdh23 EC1-2 wild-type (mouse) (UniProt Q99PF4). The test can be described thus: single-molecule force spectroscopy.
Sequence of Mouse Cdh23 EC1-2 wild-type (mouse) (Q99PF4 24-228): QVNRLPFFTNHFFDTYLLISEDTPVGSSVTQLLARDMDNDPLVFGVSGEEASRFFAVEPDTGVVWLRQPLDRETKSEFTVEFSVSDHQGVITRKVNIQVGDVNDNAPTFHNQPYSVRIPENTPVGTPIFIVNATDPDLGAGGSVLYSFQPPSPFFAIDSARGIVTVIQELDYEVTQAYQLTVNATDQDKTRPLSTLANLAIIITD

In general, koff refers to a measure of how fast the partners let go of each other. Higher therefore signals fast dissociation. “Mouse Pcdh15 EC1-2 wild-type (from UniProt Q99PJ1-18 27-259) (domain or fragment)” had a koff in test [1] of 0.0097 s⁻¹.

For “Mouse Pcdh15 EC1-2(D157G) (domain or fragment)”, in test [2], the koff stood at 0.044 s⁻¹.
